According to patent US20260042834A1 (HBM ALPHA THERAPEUTICS, published 2026):
Several values for one entry are separate records, joined by “and”; a condition that tells them apart may be missing. Identical values can stand only once. Like-named read-outs stand apart in the source and are kept apart here. Each block holds one binder with its values, some of them ahead of it.

Columns and labels:
CRH (NT-Biotin) [1] = target: T1, CRH (NT-Biotin) (human and mouse (same sequence), not fully specified; biotin at the N-terminus); assay: ELISA, biotinylated CRH on streptavidin plate
T1 peptide: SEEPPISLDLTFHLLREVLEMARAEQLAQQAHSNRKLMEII
Procedure: (§1) Streptavidin (Thermo, Cat: 21125) was diluted in PBS to a concentration of 2 μg/ml. 100 μl of diluted streptavidin was added per well to ELISA microplates, and the plates were incubated overnight at 4° C. […] 100 μL of 3,3′,5,5′-tetramethylbenzidine (TMB) substrate (Biopanda, Cat: TMB-S-003) was added, and the plates were incubated at room temperature for 15 minutes. 100 μL of ELISA stopping solution (Solarbio, Cat #: C1058) was added to terminate the reaction, and the optical density at 450 nm (OD450 nm) was determined by an ELISA plate reader (Molecular Devices, Spectra max 384 plus).

CRH (CT-Biotin) [2] = target: T2, CRH (CT-Biotin) (human and mouse (same sequence), biotin on an added C-terminal K (CRH-K-Biotin)); assay: ELISA, biotinylated CRH on streptavidin plate
T2 construct: also called Peptide 4 (CRH-Biotin)
T2 peptide: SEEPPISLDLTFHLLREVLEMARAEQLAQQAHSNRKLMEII
Procedure: as §1

[3] = target: T3, corticotropin-releasing hormone (CRH) peptide (human and mouse (same sequence), not fully specified); assay: cell-based or functional assay
T3 peptide: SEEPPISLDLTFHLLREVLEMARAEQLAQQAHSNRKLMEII

[4] = target: T3, corticotropin-releasing hormone (CRH) …; assay: cell-based or functional assay
[5] = target: T3, corticotropin-releasing hormone (CRH) …; assay: cell-based or functional assay
[6] = target: T3, corticotropin-releasing hormone (CRH) …; assay: cell-based or functional assay
CRH (NT-Biotin) [7] = target: T1, CRH (NT-Biotin); assay: ELISA, biotinylated CRH on streptavidin plate
Summary of the method: (§2)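 Streptavidin coat 2 μg/ml in PBS, o/n 4° C. TMB 15 min RT, stop solution, read OD450 nm.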

CRH (CT-Biotin) [8] = target: T2, CRH (CT-Biotin); assay: ELISA, biotinylated CRH on streptavidin plate
Summary of the method: as §2

CRH (NT-Biotin) [9] = target: T1, CRH (NT-Biotin); assay: ELISA, biotinylated CRH on streptavidin plate
Procedure: as §1

CRH (CT-Biotin) [10] = target: T2, CRH (CT-Biotin); assay: ELISA, biotinylated CRH on streptavidin plate
Procedure: as §1

CRH (NT-Biotin) [11] = target: T1, CRH (NT-Biotin); assay: ELISA, biotinylated CRH on streptavidin plate
Procedure: as §1

CRH (CT-Biotin) [12] = target: T2, CRH (CT-Biotin); assay: ELISA, biotinylated CRH on streptavidin plate
Procedure: as §1

[13] = target: T3, corticotropin-releasing hormone (CRH) …; assay: cell-based or functional assay
CRH (NT-Biotin) [14] = target: T1, CRH (NT-Biotin); assay: ELISA, biotinylated CRH on streptavidin plate
Procedure: as §1

CRH (CT-Biotin) [15] = target: T2, CRH (CT-Biotin); assay: ELISA, biotinylated CRH on streptavidin plate
Procedure: as §1

[16] = target: T3, corticotropin-releasing hormone (CRH) …; assay: cell-based or functional assay
CRH (NT-Biotin) [17] = target: T1, CRH (NT-Biotin); assay: ELISA, biotinylated CRH on streptavidin plate
Procedure: as §1

CRH (CT-Biotin) [18] = target: T2, CRH (CT-Biotin); assay: ELISA, biotinylated CRH on streptavidin plate
Procedure: as §1

biotinylated CRH [19] = target: T4, biotinylated CRH (human and mouse, not fully specified; biotinylated, position not stated); assay: Octet in-tandem, row = 1st mAb; competitor (2nd mAb) PR302309-8
T4 construct: also called Biotin-CRH; biotin-labeled CRH
T4 peptide: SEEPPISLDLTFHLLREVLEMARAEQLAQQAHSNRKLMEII
Procedure: (§3) SA sensors (Fortebio, Cat #18-5019) were hydrated in running buffer for 10 mins.

biotinylated CRH [20] = target: T4, biotinylated CRH; assay: Octet in-tandem, row = 1st mAb; competitor (2nd mAb) PR005660
Procedure: as §3

biotinylated CRH [21] = target: T4, biotinylated CRH; assay: Octet BLI, biotinylated CRH on SA sensor
biotinylated CRH [22] = target: T4, biotinylated CRH; assay: Octet in-tandem, row = 1st mAb; competitor (2nd mAb) PR302341-34
Procedure: as §3

biotinylated CRH [23] = target: T4, biotinylated CRH; assay: Octet in-tandem, row = 1st mAb; competitor (2nd mAb) PR303394
Procedure: as §3

biotinylated CRH [24] = target: T4, biotinylated CRH; assay: Octet in-tandem, row = 1st mAb; competitor (2nd mAb) PR006669
Procedure: as §3

biotinylated CRH [25] = target: T4, biotinylated CRH; assay: Octet in-tandem, row = 1st mAb; competitor (2nd mAb) PR302334
Procedure: as §3

biotinylated CRH [26] = target: T4, biotinylated CRH; assay: Octet in-tandem, row = 1st mAb; competitor (2nd mAb) PR301777
Procedure: as §3

human UCN3 peptide = target: T5, human UCN3 peptide (human, UniProt Q969E3 120-157, not fully specified; biotin at N- or C-terminus in the ELISA); assay: ELISA on streptavidin-captured hUCN3 (NT biotin) and hUCN3 (CT biotin), mAb at 100 nM and 10 nM; axis labelled RLU, scale 0-4
T5 construct: also called hUCN3; hUCN3 (NT Biotin)
T5 peptide (looked up): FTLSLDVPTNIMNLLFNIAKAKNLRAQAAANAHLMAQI
Procedure: (§4) Streptavidin (Thermo, Cat: 21125) was diluted in PBS with a concentration of 2 μg/mL. 100 μL of diluted streptavidin was added per well to ELISA microplates, and the plates were incubated overnight at 4° C. Plates were blocked with ELISA blocking solution (containing 2% w/v BSA, 0.05% (v/v) Tween-20, pH 7.4 PBS buffer) at 37° C. for 1 hour, and then incubated with either 1 μg/mL hUCN1 (NT Biotin), hUCN1 (CT Biotin), hUCN2 (NT Biotin), hUCN2 (CT Biotin), hUCN3 (NT Biotin), or hUCN3 (CT Biotin) for 1 hour at 37° C. […] 100 μl of TMB Substrate (Biopanda, Cat: TMB-S-003) was added, and the plates were incubated at room temperature for 15 minutes. 100 μL of ELISA stopping solution (Solarbio, Cat #: C1058) was then added to terminate the reaction, and the OD450 nm was determined by an ELISA plate reader (Molecular Devices, Spectra max 384 plus).

hUCN1 (CT Biotin) = target: T6, hUCN1 (CT Biotin) (human, UniProt P55089 83-122, biotin at the C-terminus); assay: ELISA on streptavidin-captured hUCN1 (CT biotin), mAb at 100 nM and 10 nM; axis labelled RLU, scale 0-4
T6 construct: also called human UCN1 (CT biotin)
T6 peptide (looked up): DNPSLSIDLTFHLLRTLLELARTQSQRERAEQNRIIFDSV
Procedure: as §4, with “100 μL of ELISA stopping solution (Solarbio, Cat #: C1058) was then added to terminate the reaction, and the OD450 nm was determined by an ELISA plate reader (Molecular Devices, Spectra max 384 plus).” left out

hUCN1 (NT Biotin) = target: T7, hUCN1 (NT Biotin) (human, UniProt P55089 83-122, biotin at the N-terminus); assay: ELISA on streptavidin-captured hUCN1 (NT biotin), mAb at 100 nM and 10 nM; axis labelled RLU, scale 0-4
T7 construct: also called human UCN1 (NT biotin)
T7 peptide (looked up): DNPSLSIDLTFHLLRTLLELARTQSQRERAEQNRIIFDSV
Procedure: as §4

human UCN2 peptide = target: T8, human UCN2 peptide (human, UniProt Q96RP3 72-109, limits assumed, not fully specified; biotin at N- or C-terminus in the ELISA); assay: ELISA on streptavidin-captured hUCN2 (NT biotin) and hUCN2 (CT biotin), mAb at 100 nM and 10 nM; axis labelled RLU, scale 0-4
T8 construct: also called hUCN2; hUCN2 (NT Biotin)
T8 peptide (looked up): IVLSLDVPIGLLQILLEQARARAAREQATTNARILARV
Procedure: as §4

CRH (NT Biotin) = target: T9, CRH (NT Biotin) (human and mouse, not fully specified; biotin at the N-terminus); assay: ELISA, biotin peptide on streptavidin plate
T9 peptide: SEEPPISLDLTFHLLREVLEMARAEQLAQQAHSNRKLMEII
Summary of the method: as §2

N-Terminal CRH = target: T10, N-Terminal CRH (human and mouse, C-terminal K-Biotin); assay: ELISA, biotin peptide on streptavidin plate
T10 construct: also called N-Ter-CRH (CT-Bion)
T10 peptide: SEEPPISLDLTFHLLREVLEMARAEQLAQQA
Summary of the method: as §2

CRH (CT Biotin) = target: T11, CRH (CT Biotin) (human and mouse, C-terminal K-Biotin); assay: ELISA, biotin peptide on streptavidin plate
T11 construct: also called Peptide 4 (CRH-Biotin)
T11 peptide: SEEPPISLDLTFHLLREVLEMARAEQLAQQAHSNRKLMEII
Summary of the method: as §2

[27] = target: T12, corticotropin-releasing hormone (CRH) peptide (human and mouse, not fully specified); assay: cell-based or functional assay
T12 peptide: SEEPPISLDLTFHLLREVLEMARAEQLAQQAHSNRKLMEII

EC50 (CRH (NT-Biotin) [1]): 29 pM
EC50 (CRH (CT-Biotin) [2]): 32 pM
mCrhr1 Luciferase Reporter Assay IC50 [3]: 5240 pM
hCRHR1 Luciferase Reporter Assay IC50 [4]: 1830 pM
mCrhr1 Luciferase Reporter Assay IC50 [4]: 5240 pM
hCRHR1 Luciferase Reporter Assay IC50 [5]: 5410 pM
mCrhr1 Luciferase Reporter Assay IC50 [5]: 18500 pM
hCRHR1 Luciferase Reporter Assay IC50 [6]: 1830 pM
mCrhr1 Luciferase Reporter Assay IC50 [6]: 5240 pM
EC50 (CRH (NT-Biotin) [7]): 29 pM
EC50 (CRH (CT-Biotin) [8]): 64 pM and 32 pM
EC50 (CRH (NT-Biotin) [9]): 39 pM
EC50 (CRH (CT-Biotin) [10]): 70 pM
EC50 (CRH (NT-Biotin) [11]): 39 pM
EC50 (CRH (CT-Biotin) [12]): 70 pM
hCRHR1 Luciferase Reporter Assay IC50 [13]: 3690 pM
mCrhr1 Luciferase Reporter Assay IC50 [13]: 13000 pM
EC50 (CRH (NT-Biotin) [14]): 39 pM
EC50 (CRH (CT-Biotin) [15]): 70 pM
hCRHR1 Luciferase Reporter Assay IC50 [16]: 3690 pM and 4870 pM
mCrhr1 Luciferase Reporter Assay IC50 [16]: 17000 pM and 7780 pM
EC50 (CRH (NT-Biotin) [17]): 39 pM
EC50 (CRH (CT-Biotin) [18]): 70 pM
B1: PR004290 (antibody, human IgG1, kappa, V domains shown)
VH: EVQLVESGGVLVQPGGSLRLSCAASGFTFSSYWMTWVRQAPGKGLEWVANIKQDGSEKYYVDSVKGRFTISRDNAKNSLFLQMNSLRAEDTAVYYCARTLIFDYWGQGTLVTVSS
VL: DIVMTQSPLSLPVTPGEPASISCRSSQSLLHSTGYNSLEWYLQKPGQSPQLLIYLGSNRASGVPDRFSGSGSGTDFTLKISRVEAEDVGIYYCMQTLQTPITFGQGTRLEIKR
notes: Series 1; human IgG1 wildtype Fc; also called Hybridoma Clone 28b3

% Inhibition (biotinylated CRH [19]): 91%
% Inhibition (biotinylated CRH [20]): 92%
Kd (biotinylated CRH [21]): < 1 pM
koff (biotinylated CRH [21]): < 1e-07 s⁻¹
kon (biotinylated CRH [21]): 669000 M⁻¹ s⁻¹
% Inhibition (biotinylated CRH [22]): 88%
% Inhibition (biotinylated CRH [23]): 89%
% Inhibition (biotinylated CRH [24]): 93%
% Inhibition (biotinylated CRH [25]): 95%
% Inhibition (biotinylated CRH [26]): 90%
B2: PR302334 (antibody, human IgG1, kappa, V domains shown)
VH: EVKLVESGGGLVKPGGSLKLSCAASGFTFSTYAMSWVRQTPEKRLEWVASIRSGGTTYYPDSVKGRFTISRDNARNILYLQMSSLRSEDTAIYYCTRGIDWGQGTLVTVSA
VL: NIVMTQTPKFLLVSAGDRITITCKASQSVNNDVAWYQQKPGQSPKLLIYYASNRYTGVPDRFTGSGYGTDFTFTISTVQAEDLAVYFCQQDYSSWTFGGGTNLEIKR
notes: Series 9; mouse variable domains with human IgG1 wildtype Fc

binding result (human UCN3 peptide): no binding (tested: 100 nM)
binding result (hUCN1 (CT Biotin)): no binding (tested: 100 nM)
binding result (hUCN1 (NT Biotin)): no binding (tested: 100 nM)
Kd (biotinylated CRH [21]): < 1 pM
koff (biotinylated CRH [21]): < 1e-07 s⁻¹
kon (biotinylated CRH [21]): 329000 M⁻¹ s⁻¹
binding result (human UCN2 peptide): no binding (tested: 100 nM)
EC50 (CRH (NT Biotin)): 29 pM
EC50 (N-Terminal CRH): 29 pM
EC50 (CRH (CT Biotin)): 28 pM
CHO-CRE-hCRHR1 0.5 nM CRH IC50 [27]: 1100 pM
B3: PR302334-26 (antibody, human IgG1, kappa, V domains shown)
VH: EVQLVESGGGLVQPGGSLRLSCAASGFTFSTYAMSWVRQAPGKGLEWVASIRSGGTTYYPDSVKGRFTISRDNSKNSLYLQMNSLRAEDTAVYYCTRGIDWGQGTTVTVSS
VL: DIVMTQSPDSLAVSLGERATINCKASQSVNNDVAWYQQKPGQPPRLLIYYASNRYTGVPDRFSGSGSGTDFTLTISSLQAEDLAVYFCQQDYSSWTFGGGTKVEIKR
notes: Humanized variant of PR302334
